Patent CN116744966A (WISTAR INST; WEINER DAVID; MUTHUMANI KARTHIK; PARZACCHI …, dated 2023)

B1: WCoVA7 (antibody, V domains shown)
VH: EVKLLESGGGLVQPGGSLKLSCAASGFDFSRYWMSWVRQAPGKGLEWIGEINPDSSTINYTPSLKDKFIISRDNAKNTLYLQMSKVRSEDTALYYCARIYYGSPGAMDYWGQGTSVTVSS
VL: SIVMTQTPKFLLVSAGDRVTITCKASQSVSNDVAWYQQKPGQSPKLLIYYASNRYTGVPDRFTGSGYGTDFTFTISTVQAEDLAVYFCQQDYFSPYTFGGGTKLEIK
B2: WCoVA9 (antibody, V domains shown)
VH: EVQLQQSGAELVKPGASVKLSCTASGFNIKDTYMHWVKQRPEQGLEWIGRIDPANGNTKYDPKFQAKATITANTSSNTAYLHLSSLTSEDTAVYYCAPYYDYVGAMDYWGQGTSVTVSS
VL: DIQMTQSPASQSASLGESVTITCLASQTIGTWLAWYQQKPGKSPQLLIYAATSLADGVPSRFSGSGSGTKFSFKISSLQAEDFVSYYCQQLYNTPLTFGGGTKLEIK

Columns and labels:
[1] = target: SARS-CoV-2 spike protein (wild type) on pseudovirus (SARS-CoV-2, UniProt P0DTC2 14-1273); assay: cell-based or functional assay
[2] = target: recombinant SARS-CoV-2-RBD (Sino Biological) (SARS-CoV-2, UniProt P0DTC2 319-541)

Binder	IC50, pseudovirus neutralisation (CHO-ACE2 cells, luciferase) [1] [ng/mL]	Kd [2] [nM]
B1	2.6	
B2	4.9	< 1
